Laboratory results from paper PMC11388081, “Targeted degradation of VEGF with bispecific aptamer-based LYTACs ameliorates pathological retinal angiogenesis”.

Target: VEGF (HZ-1038, Proteintech) (UniProt P15692-4 27-191)
Experiment: MST; strongest of V4-V6; Kd only in figure; 20 mM CaCl2; MST: 5 nM Cy5-LYTAC, 20 mM Tris-HCl pH 8.5, 20 mM KCl, 20 mM CaCl2, 0.1% Tween 20, 10 min, temperature not stated; pulldown: cell lysate with LYTAC in DPBS-Mg
Settings: protein: commercial; chain copies: 2; biotin implied in pulldown; 23-bp linker duplex formed by both 5' ends, 3' single-stranded aptamer tails

VEGF (HZ-1038, Proteintech), sequence (P15692 other isoform, or with tags, fused parts or gaps): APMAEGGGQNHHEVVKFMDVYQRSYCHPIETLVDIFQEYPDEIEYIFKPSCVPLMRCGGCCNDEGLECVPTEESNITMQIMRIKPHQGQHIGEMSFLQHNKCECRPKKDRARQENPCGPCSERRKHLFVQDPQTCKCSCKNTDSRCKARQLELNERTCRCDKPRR

B1: V5 (M6PR-A / VEGF-A2 LYTAC) (mixed)
DNA 1: CCCCCACACGTAAATCAGTCATAGGGCGCGTAGATGACGAGCAGTCCTAACATCGTTTAGGAC
DNA 2: TATGACTGATTTACGTGTGGGGGTGTGGGGGTGGACGGGCCGGGTAGA
modifications: 5'-phosphate on strand 1 (T4 DNA ligase step stated)
binding result: binds
